Results as given in article PMC9482650, “Quantitative fragmentomics allow affinity mapping of interactomes” (Nature Communications, 2022).

Assays:
Assay in all cases: holdup assay
Design in all cases: key: below the threshold = too weak to quantify, mostly under pKd 3.1 to 4
GRIP1_4, Q9Y3R0 = molecular target: T1, GRIP1_4, Q9Y3R0
T1 sequence (Q9Y3R0 467-571, limits assumed, looked up): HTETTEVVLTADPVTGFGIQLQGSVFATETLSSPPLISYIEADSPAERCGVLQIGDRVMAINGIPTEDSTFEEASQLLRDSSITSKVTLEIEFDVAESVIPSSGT

NHERF4_2, Q86UT5 = molecular target: NHERF4_2, Q86UT5
NHERF4_2, Q86UT5, sequence (Q86UT5 220-308): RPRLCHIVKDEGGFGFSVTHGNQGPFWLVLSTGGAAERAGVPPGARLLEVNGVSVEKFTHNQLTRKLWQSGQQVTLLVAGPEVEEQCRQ

FRMPD2_2, Q68DX3 = molecular target: FRMPD2_2, Q68DX3
FRMPD2_2, Q68DX3, sequence (Q68DX3 944-1038): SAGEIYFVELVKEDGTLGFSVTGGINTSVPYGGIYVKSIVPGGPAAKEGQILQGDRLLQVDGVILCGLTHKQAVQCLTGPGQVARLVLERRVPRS

SCRIB_3, Q14160 = molecular target: SCRIB_3, Q14160
SCRIB_3, Q14160, sequence (Q14160 999-1103): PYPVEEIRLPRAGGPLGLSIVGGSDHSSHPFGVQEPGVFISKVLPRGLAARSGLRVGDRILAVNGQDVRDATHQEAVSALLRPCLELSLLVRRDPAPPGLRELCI

NHERF3_4, Q5T2W1 = molecular target: T2, NHERF3_4, Q5T2W1
T2 sequence (Q5T2W1 373-468, limits assumed, looked up): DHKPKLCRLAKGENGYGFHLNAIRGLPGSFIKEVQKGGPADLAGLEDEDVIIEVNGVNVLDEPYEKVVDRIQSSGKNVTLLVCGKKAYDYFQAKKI

LIN7B, Q9HAP6 = molecular target: T3, LIN7B, Q9HAP6
T3 sequence (Q9HAP6 88-185, limits assumed, looked up): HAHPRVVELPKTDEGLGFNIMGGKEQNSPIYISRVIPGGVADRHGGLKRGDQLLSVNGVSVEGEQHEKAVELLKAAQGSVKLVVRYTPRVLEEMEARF

LNX1_3, Q8TBB1 = molecular target: LNX1_3, Q8TBB1
LNX1_3, Q8TBB1, sequence (Q8TBB1 500-596): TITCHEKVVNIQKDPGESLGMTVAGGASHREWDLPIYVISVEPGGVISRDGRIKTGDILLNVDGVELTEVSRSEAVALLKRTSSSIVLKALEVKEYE

FRMPD2_1, Q68DX3 = molecular target: FRMPD2_1, Q68DX3
FRMPD2_1, Q68DX3, sequence (Q68DX3 770-861): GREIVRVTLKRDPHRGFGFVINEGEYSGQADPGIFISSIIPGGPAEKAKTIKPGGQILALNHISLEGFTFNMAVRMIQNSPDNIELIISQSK

MPDZ_12, O75970 = molecular target: T4, MPDZ_12, O75970
T4 sequence (O75970 1857-1958, limits assumed, looked up): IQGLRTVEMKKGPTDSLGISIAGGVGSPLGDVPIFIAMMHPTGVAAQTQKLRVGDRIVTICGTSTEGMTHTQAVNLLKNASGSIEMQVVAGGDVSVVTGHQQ

NOS1, P29475 = molecular target: NOS1, P29475
NOS1, P29475, sequence (P29475 9-101): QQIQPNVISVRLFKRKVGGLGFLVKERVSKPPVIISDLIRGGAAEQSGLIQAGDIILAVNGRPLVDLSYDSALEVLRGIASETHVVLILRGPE

MAGI2_6, Q86UL8 = molecular target: MAGI2_6, Q86UL8
MAGI2_6, Q86UL8, sequence (Q86UL8 1141-1229): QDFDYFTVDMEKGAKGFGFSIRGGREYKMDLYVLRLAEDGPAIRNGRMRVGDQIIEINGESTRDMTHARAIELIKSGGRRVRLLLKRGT

PTPN13_1, Q12923 = molecular target: T5, PTPN13_1, Q12923
T5 sequence (Q12923 1088-1188, limits assumed, looked up): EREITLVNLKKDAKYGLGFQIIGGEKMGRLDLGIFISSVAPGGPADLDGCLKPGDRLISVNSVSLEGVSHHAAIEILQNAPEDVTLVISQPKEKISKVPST

PARD3_3, Q8TEW0 = molecular target: PARD3_3, Q8TEW0
PARD3_3, Q8TEW0, sequence (Q8TEW0 582-685): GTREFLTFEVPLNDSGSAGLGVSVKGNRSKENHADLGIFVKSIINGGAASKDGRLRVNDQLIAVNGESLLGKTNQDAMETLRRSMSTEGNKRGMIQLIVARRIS

APBA1_2, Q02410 = molecular target: T6, APBA1_2, Q02410
T6 sequence (Q02410 742-832, limits assumed, looked up): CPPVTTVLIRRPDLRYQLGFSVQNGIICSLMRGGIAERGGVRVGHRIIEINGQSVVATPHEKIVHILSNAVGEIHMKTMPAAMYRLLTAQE

DLG3_3, Q92796 = molecular target: T7, DLG3_3, Q92796
T7 sequence (Q92796 374-475, limits assumed, looked up): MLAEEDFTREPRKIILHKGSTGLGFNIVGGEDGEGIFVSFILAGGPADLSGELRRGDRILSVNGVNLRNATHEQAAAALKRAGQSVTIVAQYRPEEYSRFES

MAGI2_4, Q86UL8 = molecular target: MAGI2_4, Q86UL8
MAGI2_4, Q86UL8, sequence (Q86UL8 772-865): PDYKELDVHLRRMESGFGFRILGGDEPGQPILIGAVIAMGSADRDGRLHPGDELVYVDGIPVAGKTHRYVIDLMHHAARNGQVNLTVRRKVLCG

DLG1_2, Q12959 = molecular target: DLG1_2, Q12959
DLG1_2, Q12959, sequence (Q12959 314-412): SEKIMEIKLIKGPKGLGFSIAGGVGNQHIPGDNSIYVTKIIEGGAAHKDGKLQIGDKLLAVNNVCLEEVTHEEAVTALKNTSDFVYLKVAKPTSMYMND

FRMPD4, Q14CM0 = molecular target: FRMPD4, Q14CM0
FRMPD4, Q14CM0, sequence (Q14CM0 67-160): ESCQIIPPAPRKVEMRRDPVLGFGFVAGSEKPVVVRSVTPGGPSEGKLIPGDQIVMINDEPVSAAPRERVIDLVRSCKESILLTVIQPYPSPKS

LIMK2, P53671 = molecular target: LIMK2, P53671
LIMK2, P53671, sequence (P53671 143-248): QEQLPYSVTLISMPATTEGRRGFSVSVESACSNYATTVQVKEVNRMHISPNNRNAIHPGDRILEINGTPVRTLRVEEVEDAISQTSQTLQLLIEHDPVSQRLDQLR

GRID2IP_2, A4D2P6 = molecular target: GRID2IP_2, A4D2P6
GRID2IP_2, A4D2P6, sequence (A4D2P6 272-370): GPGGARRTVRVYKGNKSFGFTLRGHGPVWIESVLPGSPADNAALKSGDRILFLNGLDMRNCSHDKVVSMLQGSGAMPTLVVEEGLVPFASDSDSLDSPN

GRIP1_7, Q9Y3R0 = molecular target: T8, GRIP1_7, Q9Y3R0
T8 sequence (Q9Y3R0 999-1096, limits assumed, looked up): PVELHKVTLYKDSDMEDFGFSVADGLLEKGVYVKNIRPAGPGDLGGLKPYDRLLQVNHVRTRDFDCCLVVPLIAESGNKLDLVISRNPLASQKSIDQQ

SNTG2, Q9NY99 = molecular target: T9, SNTG2, Q9NY99
T9 sequence (Q9NY99 68-166, limits assumed, looked up): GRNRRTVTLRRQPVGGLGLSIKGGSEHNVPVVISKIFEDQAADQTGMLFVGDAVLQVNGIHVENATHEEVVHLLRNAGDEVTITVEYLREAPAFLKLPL

DLG4_2, P78352 = molecular target: DLG4_2, P78352
DLG4_2, P78352, sequence (P78352 155-259): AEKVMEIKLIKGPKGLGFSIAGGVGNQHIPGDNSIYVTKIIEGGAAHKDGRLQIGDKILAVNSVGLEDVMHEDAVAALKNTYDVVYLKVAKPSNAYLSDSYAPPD

AHNAK1, Q09666 = molecular target: AHNAK1, Q09666
AHNAK1, Q09666, sequence (Q09666 4-100): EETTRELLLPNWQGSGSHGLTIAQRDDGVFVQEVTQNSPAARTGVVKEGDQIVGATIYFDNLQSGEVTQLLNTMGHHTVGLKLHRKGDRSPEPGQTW

MPP2, Q14168 = molecular target: T10, MPP2, Q14168
T10 sequence (Q14168 180-250, limits assumed, looked up): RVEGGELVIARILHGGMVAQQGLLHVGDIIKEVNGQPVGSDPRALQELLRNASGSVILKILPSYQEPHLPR

PDZD2_2, O15018 = molecular target: T11, PDZD2_2, O15018
T11 sequence (O15018 329-429, limits assumed, looked up): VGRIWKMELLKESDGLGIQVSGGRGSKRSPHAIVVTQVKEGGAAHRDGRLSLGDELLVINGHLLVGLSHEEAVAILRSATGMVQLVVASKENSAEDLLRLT

GRIP2_7, Q9C0E4 = molecular target: GRIP2_7, Q9C0E4
GRIP2_7, Q9C0E4, sequence (Q9C0E4 934-1023): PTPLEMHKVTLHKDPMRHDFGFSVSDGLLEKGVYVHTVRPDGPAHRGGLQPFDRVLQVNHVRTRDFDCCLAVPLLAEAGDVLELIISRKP

[1] = plain residues with an end cap or a label only (N-terminal biotin on a linker: ttds)
[2] = plain residues with an end cap or a label only (N-terminal biotin on a linker: ahx)

RLQRRRETQV [HPV18-E6, P06463]
pKd (GRIP1_4, Q9Y3R0; [1]): below the threshold | pKd (NHERF4_2, Q86UT5; [1]): below the threshold | pKd (FRMPD2_2, Q68DX3; [1]): below the threshold | pKd (SCRIB_3, Q14160; [1]): 4.84 | pKd (NHERF3_4, Q5T2W1; [1]): below the threshold | pKd (LIN7B, Q9HAP6; [1]): 3.58 | pKd (LNX1_3, Q8TBB1; [1]): below the threshold | pKd (FRMPD2_1, Q68DX3; [1]): 4.1 | pKd (MPDZ_12, O75970; [1]): below the threshold | pKd (NOS1, P29475; [1]): 3.71 | pKd (MAGI2_6, Q86UL8; [1]): below the threshold | pKd (PTPN13_1, Q12923; [1]): below the threshold | pKd (PARD3_3, Q8TEW0; [1]): below the threshold | pKd (APBA1_2, Q02410; [1]): below the threshold | pKd (DLG3_3, Q92796; [1]): 5.44 | pKd (MAGI2_4, Q86UL8; [1]): 4.28 | pKd (DLG1_2, Q12959; [1]): 5.78 | pKd (FRMPD4, Q14CM0; [1]): below the threshold | pKd (LIMK2, P53671; [1]): below the threshold | pKd (GRID2IP_2, A4D2P6; [1]): below the threshold | pKd (GRIP1_7, Q9Y3R0; [1]): below the threshold | pKd (SNTG2, Q9NY99; [1]): 4.03 | pKd (DLG4_2, P78352; [1]): 5.46 | pKd (AHNAK1, Q09666; [1]): below the threshold | pKd (MPP2, Q14168; [1]): below the threshold | pKd (PDZD2_2, O15018; [1]): 3.36 | pKd (GRIP2_7, Q9C0E4; [1]): below the threshold

RLPKIKETTV [FRMPD4, Q14CM0]
pKd (GRIP1_4, Q9Y3R0; [1]): below the threshold | pKd (NHERF4_2, Q86UT5; [1]): below the threshold | pKd (FRMPD2_2, Q68DX3; [1]): below the threshold | pKd (SCRIB_3, Q14160; [1]): 4.88 | pKd (NHERF3_4, Q5T2W1; [1]): below the threshold | pKd (LIN7B, Q9HAP6; [1]): 4.52 | pKd (LNX1_3, Q8TBB1; [1]): below the threshold | pKd (FRMPD2_1, Q68DX3; [1]): below the threshold | pKd (MPDZ_12, O75970; [1]): below the threshold | pKd (NOS1, P29475; [1]): below the threshold | pKd (MAGI2_6, Q86UL8; [1]): 3.98 | pKd (PTPN13_1, Q12923; [1]): below the threshold | pKd (PARD3_3, Q8TEW0; [1]): below the threshold | pKd (APBA1_2, Q02410; [1]): below the threshold | pKd (DLG3_3, Q92796; [1]): 5.21 | pKd (MAGI2_4, Q86UL8; [1]): 4.24 | pKd (DLG1_2, Q12959; [1]): 6.06 | pKd (FRMPD4, Q14CM0; [1]): 3.4 | pKd (LIMK2, P53671; [1]): below the threshold | pKd (GRID2IP_2, A4D2P6; [1]): 3.74 | pKd (GRIP1_7, Q9Y3R0; [1]): below the threshold | pKd (SNTG2, Q9NY99; [1]): 5.3 | pKd (DLG4_2, P78352; [1]): 5.6 | pKd (AHNAK1, Q09666; [1]): below the threshold | pKd (MPP2, Q14168; [1]): below the threshold | pKd (PDZD2_2, O15018; [1]): 4.05 | pKd (GRIP2_7, Q9C0E4; [1]): below the threshold

EVVHTPETSV [SLC16A3, O15427]
pKd (GRIP1_4, Q9Y3R0; [1]): below the threshold | pKd (NHERF4_2, Q86UT5; [1]): below the threshold | pKd (FRMPD2_2, Q68DX3; [1]): 4.5 | pKd (SCRIB_3, Q14160; [1]): 4.58 | pKd (NHERF3_4, Q5T2W1; [1]): below the threshold | pKd (LIN7B, Q9HAP6; [1]): 3.61 | pKd (LNX1_3, Q8TBB1; [1]): below the threshold | pKd (FRMPD2_1, Q68DX3; [1]): below the threshold | pKd (MPDZ_12, O75970; [1]): below the threshold | pKd (NOS1, P29475; [1]): 3.71 | pKd (MAGI2_6, Q86UL8; [1]): 4.14 | pKd (PTPN13_1, Q12923; [1]): below the threshold | pKd (PARD3_3, Q8TEW0; [1]): below the threshold | pKd (APBA1_2, Q02410; [1]): 4.09 | pKd (DLG3_3, Q92796; [1]): 4.28 | pKd (MAGI2_4, Q86UL8; [1]): 3.55 | pKd (DLG1_2, Q12959; [1]): 4.3 | pKd (FRMPD4, Q14CM0; [1]): below the threshold | pKd (LIMK2, P53671; [1]): below the threshold | pKd (GRID2IP_2, A4D2P6; [1]): below the threshold | pKd (GRIP1_7, Q9Y3R0; [1]): 3.79 | pKd (SNTG2, Q9NY99; [1]): 4.55 | pKd (DLG4_2, P78352; [1]): 4.2 | pKd (AHNAK1, Q09666; [1]): below the threshold | pKd (MPP2, Q14168; [1]): below the threshold | pKd (PDZD2_2, O15018; [1]): 4.26 | pKd (GRIP2_7, Q9C0E4; [1]): below the threshold

GYDWGPATDL [TJP3, O95049]
pKd (GRIP1_4, Q9Y3R0; [2]): below the threshold | pKd (NHERF4_2, Q86UT5; [2]): below the threshold | pKd (FRMPD2_2, Q68DX3; [2]): 3.54 | pKd (SCRIB_3, Q14160; [2]): 4.93 | pKd (NHERF3_4, Q5T2W1; [2]): below the threshold | pKd (LIN7B, Q9HAP6; [2]): below the threshold | pKd (LNX1_3, Q8TBB1; [2]): below the threshold | pKd (FRMPD2_1, Q68DX3; [2]): below the threshold | pKd (MPDZ_12, O75970; [2]): below the threshold | pKd (NOS1, P29475; [2]): below the threshold | pKd (MAGI2_6, Q86UL8; [2]): 5.24 | pKd (PTPN13_1, Q12923; [2]): below the threshold | pKd (PARD3_3, Q8TEW0; [2]): 3.66 | pKd (APBA1_2, Q02410; [2]): 4.17 | pKd (DLG3_3, Q92796; [2]): below the threshold | pKd (MAGI2_4, Q86UL8; [2]): 3.49 | pKd (DLG1_2, Q12959; [2]): 3.61 | pKd (FRMPD4, Q14CM0; [2]): 3.83 | pKd (LIMK2, P53671; [2]): below the threshold | pKd (GRID2IP_2, A4D2P6; [2]): 4.47 | pKd (GRIP1_7, Q9Y3R0; [2]): below the threshold | pKd (SNTG2, Q9NY99; [2]): 4.32 | pKd (DLG4_2, P78352; [2]): 3.68 | pKd (AHNAK1, Q09666; [2]): below the threshold | pKd (MPP2, Q14168; [2]): below the threshold | pKd (PDZD2_2, O15018; [2]): 4.46 | pKd (GRIP2_7, Q9C0E4; [2]): below the threshold
